US20020147151A1 (TRUSTEES OF BOSTON UNIVERSITY, published 2002)

Target: T1, native GST (UniProt P08515 1-218 = GST)
T1 construct: also called rGST; GST alone
Assay: pull-down of 35S-labeled rIL-16 on GST-coated glutathione-Sepharose beads, autoradiography (control for non-specific binding)
Description: Specificity of the interaction between rIL-16 and D3D4 was assessed by competition with an excess of unlabeled rIL-16. ³⁵S-labeled rIL-16 incubated with GST (lane 1); ³⁵S-labeled rIL-16 incubated with GST-D3D4 (lane 2); ³⁵S-labeled rIL-16 plus excess unlabelled rIL-16 incubated with GST-D3D4 (lane 3); ³⁵S-labeled rIL-16 plus 10 ug/ml peptide A (lane 4); ³⁵S-labeled rIL-16 plus 10 ug/ml peptide B (lane 5); ³⁵S-labeled rIL-16 plus 10 ug/ml peptide C (lane 6); ); ³⁵S-labeled rIL-16 plus 10 ug/ml peptide A and peptide B (lane 7). The arrow indicates the position of IL-16 on the gel. The identity of this band was re-confirmed by immunoblotting with anti-IL-16 antibody.
To investigate IL-16 interaction with the D3D4 of CD4, the GST-D3D4 fusion protein, or GST alone, was bound to the glutathione-conjugated Sepharose 4B beads. Five ul of the in vitro translation product containing ³⁵S-labeled rIL16 was added to 15 ul of the bead-bound proteins in 230 ul of PBS and 50 ul of NETN buffer (150 mM NaCl, 1 mM EDTA, 0.5% NP 40, and 50 mM Tris, pH 8.0). After incubating at 4° C. for 2 h, the beads were washed 3 times in NETN buffer. The GST-D3D4 or GST proteins were released from the beads by boiling in SDS gel loading buffer, and the supernatant was analyzed by 12% SDS-polyacrylamide gel electrophoresis (SDS-PAGE). The presence of ³⁵S-labeled mrIL16 was detected by autoradiography of the dried gel. […]

T1 sequence (P08515 whole entry): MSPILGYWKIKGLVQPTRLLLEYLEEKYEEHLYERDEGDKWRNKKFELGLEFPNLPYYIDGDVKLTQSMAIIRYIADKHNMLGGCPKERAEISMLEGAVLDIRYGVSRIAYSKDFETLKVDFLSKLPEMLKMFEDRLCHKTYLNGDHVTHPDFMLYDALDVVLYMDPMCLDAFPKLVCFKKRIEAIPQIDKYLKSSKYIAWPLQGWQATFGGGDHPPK

binding result: no binding
B1: 35S-labeled murine rIL-16 (in vitro transcription and translation product, C-terminal 119 amino acids) (ligand, mouse, UniProt O54824 1204-1322, looked up)
chain: DSAASASAASDISVESKEATVCTVTLEKTSAGLGFSLEGGKGSLHGDKPLTINRIFKGTEQGEMVQPGDEILQLAGTAVQGLTRFEAWNVIKALPDGPVTIVIRRTSLQCKQTTASADS
modifications: [35S] methionine
notes: domain: C-terminal 119 amino acids; also called radiolabeled murine IL-16; 35S-labeled rIL-16
